Laboratory results published in the supplement of paper PMC7877785.
± gives the uncertainty stated by the source.

Test: self-splicing fitness, log relative to wild type (ln ratio); higher = more splicing; Tetrahymena group I intron in knt gene, E. coli kanamycin selection, DiMSum; sequences stand for … in CUCUCU…GGAGGGAAAAGUUAUCAGGCAUGCACCUGGUAGCUAGUCUUUAAACCAAUAGAUUGCAUCGGUUUAAAAGGCAAGACCGUCAAAUUGCGGGAAAGGGGUCAACAGCCGUUCAGUACCAAGUCUCAGGGGAAACUUUGAGAUGGCCUUGCAAAGGGUAUGGUAAUAAGCUGACGGACAUGGUCCUAACCACGCAGCCAAGUCCUAAGUCAACAGAUCUUCUGUUGAUAUGGAUGCAGUUCACAGACUAAAUGUCGGUCGGGGAAGAUGUAUUCUUCUCAUAAGAUAUAGUCGGACCUCUCCUUAAUGGGAGCUAGCGGAUGAAGUGAUGCAACACUGGAGCCGCUGGGAACUAAUUUGUAUGCGAAAGUAUAUUGAUUAGUUUUGGAGUACUCGUGGUCG
How it was run: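 Fitness was computed with DiMSum as the error-weighted combination of replicate fold changes, kanamycin versus none, each normalised to wild type. The library randomised all eight intron nucleotides of the P1ex region, with the intron placed in the knt kanamycin-resistance gene on pET-22b(+) in E. coli BL21(DE3). Six replicate transformations were grown overnight at 37°C or 30°C on LB agar with or without 25 μg/mL kanamycin, plus 100 μg/mL carbenicillin, 50 μM IPTG and 0.2% rhamnose. Pooled colonies were amplicon-sequenced on an Illumina HiSeq 2500.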

Sequence | self-splicing fitness (ln) (30 °C) | self-splicing fitness (ln) (37 °C)
ACCUAGCAAUAUUACGAUUG | -3.2 ± 0.21 | -2.28 ± 0.25
ACCUAGCAAUAUUACGCAAG | -2.73 ± 0.15 | -2.2 ± 0.18
ACCUAGCAAUAUUACGCCUA | -2.17 ± 0.3 | -2.38 ± 0.3
ACCUAGCAAUAUUACGCGCU | 0.00461 ± 0.076 | -0.0669 ± 0.096
ACCUAGCAAUAUUACGCUGG | -4.07 ± 0.35 | -2.53 ± 0.22
ACCUAGCAAUAUUACGGCGG | -1.36 ± 0.12 | -1.6 ± 0.14
ACCUAGCAAUAUUACGGGAA | -1.62 ± 0.11 | -0.345 ± 0.11
ACCUAGCAAUAUUACGGGCU | -1.51 ± 0.076 | -1.35 ± 0.094
ACCUAGCAAUAUUACGGGGA | -1.11 ± 0.08 | -0.794 ± 0.096
ACCUAGCAAUAUUACGGGGG | -3.84 ± 0.2 | -1.59 ± 0.17
ACCUAGCAAUAUUACGUCAG | -3.93 ± 0.19 | -1.85 ± 0.1
ACCUAGCAAUAUUACGUCGG | -1.07 ± 0.078 | -1.11 ± 0.11
ACCUAGCAAUAUUACGUGCC | -1.63 ± 0.12 | -0.237 ± 0.14
ACCUAGCAAUAUUACGUUUA | -3.18 ± 0.17 | -2.68 ± 0.17
ACCUAGCAAUAUUACGUUUU | -2.61 ± 0.091 | -1.44 ± 0.1
ACGAAGCAAUAUUACGAAAC | -2.87 ± 0.23 | –
ACGAAGCAAUAUUACGAAGG | -2.21 ± 0.17 | -1.4 ± 0.15
ACGAAGCAAUAUUACGACGU | -2.78 ± 0.17 | -1.88 ± 0.19
ACGAAGCAAUAUUACGCAAA | -2.64 ± 0.15 | -0.916 ± 0.13

Sequence | self-splicing fitness (ln) (30 °C) | self-splicing fitness (ln) (37 °C)
ACGAAGCAAUAUUACGCGCU | -1.01 ± 0.09 | 0.163 ± 0.12
ACGAAGCAAUAUUACGCUAC | -2.09 ± 0.14 | -2.81 ± 0.15
ACGAAGCAAUAUUACGCUAU | -0.928 ± 0.06 | -1.48 ± 0.078
ACGAAGCAAUAUUACGGACG | -1.55 ± 0.13 | -0.00573 ± 0.18
ACGAAGCAAUAUUACGGAGU | -3.82 ± 0.24 | -3.07 ± 0.29
ACGAAGCAAUAUUACGGCCU | 0.00118 ± 0.097 | 0.0498 ± 0.13
ACGAAGCAAUAUUACGGGCU | -0.943 ± 0.1 | -1.67 ± 0.16
ACGAAGCAAUAUUACGGGUU | -3.63 ± 0.15 | -2.58 ± 0.14
ACGAAGCAAUAUUACGGUCU | -0.57 ± 0.073 | -0.225 ± 0.097
ACGAAGCAAUAUUACGGUGU | -2.71 ± 0.11 | -1.59 ± 0.095
ACGAAGCAAUAUUACGGUUA | -1.58 ± 0.095 | -0.445 ± 0.079
ACGAAGCAAUAUUACGGUUC | -4.09 ± 0.23 | -0.86 ± 0.15
ACGAAGCAAUAUUACGUAGC | -3.19 ± 0.17 | -1.16 ± 0.14
ACGAAGCAAUAUUACGUAGG | -2.12 ± 0.099 | -1.43 ± 0.15
ACGAAGCAAUAUUACGUAUG | -1.94 ± 0.14 | -2.7 ± 0.23
ACGAAGCAAUAUUACGUCCC | -1.28 ± 0.13 | -1.07 ± 0.16
ACGAAGCAAUAUUACGUCUA | -1.66 ± 0.071 | -1.03 ± 0.061
ACGAAGCAAUAUUACGUGCA | -0.772 ± 0.066 | 0.325 ± 0.084
